Measured values published in patent CN115125215A.

How the values were obtained:
[1] = biological target: 原核表达并纯化的sIFN-λ4重组蛋白 (porcine IFN-λ4, E. coli, pET-15b-sIFN-λ4) (pig); test: indirect ELISA, purified ascites antibody diluted 100-fold and then in 2-fold steps to 100×2^12
[2] = biological target: 原核表达并纯化的sIFN-λ4重组蛋白 (porcine IFN-λ4, E. coli, pET-15b-sIFN-λ4) (pig); test: indirect ELISA, antigen coated in 2-fold dilutions; positive if OD630nm of the well : OD630nm of the negative well ≥2.1

B1: 单克隆抗体λ4-1A2 (sIFN-λ4单克隆抗体, secreted by hybridoma cell line λ4-1A2, CCTCC NO:C2022132) (antibody, V domains shown)
VH: QVTLKESGPGKLQPSQTLTLTCSFSGFSLNTYGIGVAWIRQPSGKGLEWLAHIWWNDNKYYNSALKTRLTISKDTSNNQVFLKIASVDTADTATYYCASIKGDYWGQGTS
VL: NIVLTQSPASLAVSLGQRATISCRASKSVDSFGKSFMHWYQQKPGQPPKLLIYLVSNLESGVPARFSGSGSRTDFTLTIDPVEADDAATYYCQQNNEDPPTFGGGTKLEIKR
With B1 the 效价 (ELISA titre) (fold dilution) [1] was 205000 and the 最低检测限 (lowest detectable amount of coated antigen) [2] was 6.25 ng.
